Patent publication US20190008955A1 (SORRENTO THERAPEUTICS, published 2019)
Positions count from the first letter of the chain named.

What was measured:
human CXCR3 [1] = target: T1, human CXCR3 (human, UniProt P49682 1-368); experiment: flow cytometry, antibody titration on CHO-CXCR3 cells
T1 construct: whole, on cells; also called hu-CXCR3; C-X-C chemokine receptor 3
T1 sequence (looked up): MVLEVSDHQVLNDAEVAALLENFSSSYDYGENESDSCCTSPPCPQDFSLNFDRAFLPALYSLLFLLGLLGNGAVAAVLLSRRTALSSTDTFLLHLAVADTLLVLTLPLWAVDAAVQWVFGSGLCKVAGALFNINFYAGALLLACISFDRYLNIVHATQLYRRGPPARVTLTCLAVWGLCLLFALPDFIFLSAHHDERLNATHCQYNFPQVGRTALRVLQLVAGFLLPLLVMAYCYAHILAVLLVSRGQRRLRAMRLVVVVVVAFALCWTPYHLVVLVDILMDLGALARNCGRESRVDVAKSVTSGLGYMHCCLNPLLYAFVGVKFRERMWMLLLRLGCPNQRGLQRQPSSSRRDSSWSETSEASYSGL
Experimental: In this example, CHO-CXCR3 cells were lifted from culture flasks using non-enzymatic Cell Dissociation Buffer-PBS based (Life Technologies #13151-014). Cells were resuspended in FACS Buffer (2% Fetal Bovine Serum in PBS) at 1×10⁶ cells/ml and 50 μl (0.5×10⁵ cells) were aliquoted into the wells of a 96-well plate. Plated cells were spun down and the supernatant discarded. Cells were resuspended in 30 μl FACS Buffer containing serially diluted concentrations of antibody in triplicate. Plates were incubated for 1 hr at 4° C. and then washed twice with FACS Buffer. Cells were resuspended in 50 μl goat anti-human IgG (γ-chain specific)-PE conjugated secondary antibody (Southern Biotech #2040-09) diluted 1:500 in FACS Buffer. Cells were further incubated for 30 min at 4° C. and then washed 1× with FACS Buffer. The cells were resuspended in a final volume of 30 μl FACS Buffer and analyzed using the Intellicyt Flow Cytometer. Median fluorescence in the FL-2H channel was determined using FlowJo software and EC₅₀ value was determined by plotting the data in GraphPad Prism and analyzing using a variable slope non-linear regression.

human CXCR3 [2] = target: T1, human CXCR3; experiment: cell-based or functional assay
murine CXCR3 = target: T2, murine CXCR3 (murine, UniProt O88410 1-367); experiment: flow cytometry, antibody titration on murine B16-F10 cells
T2 construct: whole, on cells; target is the endogenous receptor on B16-F10 cells; also called mur CXCR3
T2 sequence (looked up): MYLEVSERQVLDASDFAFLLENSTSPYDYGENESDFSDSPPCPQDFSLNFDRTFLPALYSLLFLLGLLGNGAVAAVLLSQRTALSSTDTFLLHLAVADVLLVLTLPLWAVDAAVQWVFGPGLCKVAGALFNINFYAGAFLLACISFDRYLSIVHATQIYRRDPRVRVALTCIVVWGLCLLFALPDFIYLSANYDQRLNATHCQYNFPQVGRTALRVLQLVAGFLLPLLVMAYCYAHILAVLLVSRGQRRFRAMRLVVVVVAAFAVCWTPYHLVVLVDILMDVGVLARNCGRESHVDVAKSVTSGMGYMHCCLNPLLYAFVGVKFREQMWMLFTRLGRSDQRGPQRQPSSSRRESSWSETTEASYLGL
Experimental: In this example, murine B16-F10 cells (ATCC, #CRL-6475) were lifted from culture flasks using non-enzymatic Cell Dissociation Buffer-PBS based (Life Technologies #13151-014). Cells were harvested, washed and resuspended in FACS Buffer (2% Fetal Bovine Serum in PBS) at 1×10⁶ cells/ml and 50 μl (0.5×10⁵ cells) were aliquoted into the wells of a 96-well plate. Plated cells were spun down and the supernatant discarded. Cells were resuspended in 30 μl FACS Buffer serially diluted concentrations of antibody in triplicate. Plates were incubated for 1 hr at 4° C. and then washed 2× with FACS Buffer. Cells were resuspended in 50 μl goat anti-human IgG (γ-chain specific)-PE conjugated secondary antibody (Southern Biotech #2040-09) diluted 1:500 in FACS Buffer. Cells were further incubated for 30 min at 4° C. and then washed 1× with FACS Buffer. The cells were resuspended in a final volume of 30 μl FACS Buffer and analyzed using the Intellicyt Flow Cytometer. Median fluorescence in the FL-2H channel was determined using FlowJo software and the EC₅₀ value was determined by plotting the data in GraphPad Prism and analyzing using a variable slope non-linear regression.

human CXCR3 [3] = target: T1, human CXCR3; experiment: cell-based or functional assay; remark: listed apart in the source

B1: 32B12 (antibody, V domains shown)
VH: EVQLVQSGGGLVKSGRSLRLSCTVSGFTFGNSAMSWFRQAPGKGLEWVSSISSSSSYIYYADSVKGRFTISRDNAKNSLYLQMNSLRAEDTAVYYCARDLSGRGYSYLNYWGQGTLVTVSS
VL: SYELTQPPSVSAAPGQKVTISCSGSSSNIGNSYVSWFQQFPGTAPKLVIYENNKRPSGIPDRFSGSKSGTSATLGITGLQTGDEADYYCGTWDSSLSGRVFGGGTKLTVL
notes: Described as a fully human antibody of an IgG class and detected with anti-human IgG (gamma-chain specific); also called anti-CXCR3 antibody 32B12; clone 32B12
EC50 (human CXCR3 [1]): 1 nM | IC50 [nM] in a chemotaxis assay using activated T cells, ligand CXCL9 (30 nM) (human CXCR3 [2]): 0.6 nM | IC50 [nM] in a chemotaxis assay using activated T cells, ligand CXCL10 (12.5 nM) (human CXCR3 [2]): 0.2 nM | IC50 [nM] in a chemotaxis assay using activated T cells, ligand CXCL11 (0.3 nM) (human CXCR3 [2]): 0.3 nM | EC50 (murine CXCR3): 25 nM | IC50 [nM] in a calcium flux assay using CHO-CXCR3 cells, ligand CXCL9 (200 nM) (human CXCR3 [3]): 37 nM | IC50 [nM] in a calcium flux assay using CHO-CXCR3 cells, ligand CXCL10 (164 nM) (human CXCR3 [3]): 7 nM | IC50 [nM] in a calcium flux assay using CHO-CXCR3 cells, ligand CXCL11 (60 nM) (human CXCR3 [3]): 16 nM

B2: 3A11 (antibody, V domains shown)
VH: QVQLVQSGGGLVKPGGSLRLSCAASGFTFTSSGMNWVRQAPGKGLEWVAYIFPNGKTLYPESVKGRFIITRDNAEKSLFLEMNNLRAEDMGVYYCAIDLNWGSGYWGQGTLVTVSS
VL: SYVLTQPPSVSKGLRQTATLTCTGNINNVGNVGATWLQQHQGHPPKLLSDRNNNRPSGISERFSASRSGNAASLTITGLQPEDEADYYCSAWDTSLGAWVFGGGTKLTVL
notes: Fully human IgG class
EC50 (human CXCR3 [1]): 1.2 nM

B3: 32D12 (antibody, V domains shown)
VH: EVQLLESGGGLVQPGGSQRLSCAASGFTFSSYPMTWVRQAPGKGLEWVSAISDGGSGTYYADSVKGRFTISRDNSKNTLYLQMNSLRAEDTAIYYCARYKMGGSYRGLDDWGQGTLVTVSS
VL: LPVLTQPASVSGSPGQPITISCTGTSGNIGSYNYVSWYQQHPGKAPRLLIYDVSLRPSGISSHFSGSKSGNTASLTISGLQAEDEAEYFCLSWTSDKTYVFGSGTKLTVL
notes: Fully human IgG class
EC50 (human CXCR3 [1]): 4 nM | IC50 [nM] in a chemotaxis assay using activated T cells, ligand CXCL9 (30 nM) (human CXCR3 [2]): 2.5 nM | IC50 [nM] in a chemotaxis assay using activated T cells, ligand CXCL10 (12.5 nM) (human CXCR3 [2]): 0.03 nM | IC50 [nM] in a chemotaxis assay using activated T cells, ligand CXCL11 (0.3 nM) (human CXCR3 [2]): 3.4 nM | IC50 [nM] in a calcium flux assay using CHO-CXCR3 cells, ligand CXCL11 (60 nM) (human CXCR3 [3]): 19 nM

B4: 3C11 (antibody, V domains shown)
VH: EVQLVESGGGLVQPGGSLRLSCSASGFTFSSYAMHWVRQAPGKGLEYVSAISSNGGSTYYADSVKGRFTISRDNSKNTLYLQMSSLRAEDTAVYYCVKSIAAAGTQYYYYYMDVWGKGTTVTVSS
VL: DIQLTQSPSSLSASVGDRVTITCRASQGIGTYLAWFQQKPGKVPKPLIYAASTLQSGVPSRFSGSGSGADFTLTISSLQPEDVATYYCQKYNSVPQTFGQGTKVEIK
notes: Fully human IgG class
EC50 (human CXCR3 [1]): 0.6 nM

B5: 2A3 (antibody, V domains shown)
VH: QVQLVQSGAEVKKPGSSVKVACKASGGTFSHSAISWVRQAPGQGLEWIGRTIPTLEMASYAQKFQGRVTISADKSTRTGYMELRDLRSEDTAVYYCSTQTPSYTDHWGQGTLVTVSS
VL: DIVMTQTPLSLPVTLGQPASISCRSSQSLVHSDGNTYLNWFQQRPGQSPRRLIYKVSNRDSGVPDRFSGSGSGTDFTLKISRVEAEDVGVYYCMQGTHWPLTFGGGTKVEIK
notes: Fully human IgG class
EC50 (human CXCR3 [1]): 11 nM

B6: 3A3 (antibody, V domains shown)
VH: QVQLVQSGAEVKKPGSSVKVSCKASGGTFNRYAFSWVRQAPGQGPELMGRIMPMFDIASYAQKFQGRLTITADKSTSTAYMELSSLRSDDTAVYYCTQVSGDSDYWGPGTLVTVSS
VL: B5 VL with S32N, Q42H, S61F, K79R, T97S
notes: Fully human IgG class
EC50 (human CXCR3 [1]): 0.5 nM

B7: F7 (antibody, V domains shown)
VH: B5 VH
VL: B5 VL with S26N, N39Y, S81N, L101N, G105Q, V109L
notes: Fully human IgG class; 31
EC50 (human CXCR3 [1]): 5 nM
